Assay results from a protein production outcome set (Wang et al. 2014).

Experiment: label from the status in PepcDB records

## MTEMELKLIKIDTSHYFEKKPGLGERVDYAGRCFYNKFQRVNAMLTSSLIQKHLKREIEIAHNLILRNDKVENIVFDYNGRNPERFYHKAQLLLREEGFMNFTAYNTKTPGHLHLYVHKGHTELGEGERLVKTLSMKLAQGLPKEWKVFPSNEWPKEFNILALPYEVFAKERGSSWAKHL
  protein production: not failed

## MHSTPKRVLLAGATGLTGEHLLDRILSEPTLAKVIAPARKALAEHPRLDNPVGPLAELLPQLDGSIDTAFCCLGTTIKEAGSEEAFRAVDFDLPLAVGKRALEMGARHYLVVSALGADAKSSIFYNRVKGELEQALQEQGWPQLTIARPSLLFGPREEFRLAEILAAPIARILPGKYHGIEACDLARALWRLALEEGKGVRFVESDELRKLGK
  protein production: not failed

## MLSIIEQIKQGQLWDFHGGIHPEENKTISNQAAIQQAGIPSQLVLPLKQHIGGKGDILVSVGDVVLKGQPLTQGNIAMCVPVHAPTSGRITAIEPRTVAHPSGLTDLCIVIESDGEDRWVEDRTPIDDFSSVDPIDLIERIRQSGISGMGGAGFPTSRKIQSGIGKAEMLIINAAECEPYITADDRLMREHAEEIIDGIKILQHILTPKVCIIAIEDNKPEAVKALNQAVTDHDNIIIRVIPTKYPSGGSRQLTKIITGQEVPANGRSTDIGVIVQNVGTVFAIKRAICDAEPLIERIVTLTGNSMSTPGNLWVRLGTCIDYLMELVGYKADKKHPRIIMGGSLMGFTLPHQQVPITKITNCIITPDKKELPLYNHEMACIRCSSCADACPTSLLPQQLYWYSKSEDYDKCNEYNLNDCIECGACAYVCPSEIPLVQYYRQAKSEIYSRKQDALAAERAKLRFEEKNARLERDKLERENKFKQAAENRRKEMKTENKGGDDAIAAAIARVKAQKAAQESGVAAPKPAVAAAIARAKAKQAEAAKSETSVPDNSEMAKLREERKQQARERKAKLAEETTATDSDKSEKKDAVAAAIARAKARKAAQAEEKTETPVASEEKNQNTEGSADPKKAAVAAAIARAKARKAAQAEEKTETPVTSEEKNQNTEGSADPKKAAVAAAIARAKARKAAQAEEKTETPVASEEKNQNTEGSADPKKAAVAAAIARAKARKAAQAEEKTETPVTSEEKNQNTEGSADPKKAAVAAAIARAKARKATQAEEKTETPVTSEEKNQNTEESADPKKAAVAAAIARAKARKAAQENNKKEE
  protein production: failed

## MQIKELAELTGVSVRTLHHYDKIGLLVPQKDDWNGYRIYSEKDVDKLQQILFFKELDFPLKKIQQILDDPLFDKNVALDMQRHLLIEKKQRIETMLATLDLTIKNEKGEITMTNKEKFTGFDFSSNPYEEEARKLWGDKVVEKANEKVNNMSEKEQLTLKESFDAEFRHLASVRKLTPESEEAQLEIDHFFHYLNDTHGNIYSLEAFASLGEMYVNDERFTKNIDQFGDGLSQFLQEAMTIYAKNK
  protein production: not failed

## RVGINQLVQHPALDAATTGFKEAFEEAGVDVTFDEQNANGEQGTALTISQQFASDNLDLVLAVATPAAQATAQNITDIPVLFTAVTDAVSAELVDSNEAPGGNVTGTSDIAPIEQQLELLQQLVPDAKSIGIVYASGEVNSQVQVDEVTKAAEPLGLSVNTQTVTTVNEIQQAVEALGDVDVIYVPTDNMVVSGISSLVQVAEQKQIPVIGAESGTVEGGALATLGIDYTELGRQTGEMALRILQDGEDPATMPVETATEFTYVINEDAAERQGVEIPQEILDKAERV
  protein production: not failed

## MKKNHVVIGVIIVAALALLFTLSIQIARLILGDGPMVSSGEGVGYVEVKGPILESEEIVKQLSEMRKKTNVKAVVLRIESPGGVIGPSQEIYEAVKKLAKTKKVVVSMGSVAASGGYHIAIPAAVIYANPGTITGSIGVLMKLANVEGLMDKVGMKAFTLKSGKFKDAGSPVRALTDEDRALLQGVIDNLHTQFVKAVAEARKLPVEEVRRLADGRVYTGEQAVSLKLVDRLGTLEDAVEEAGRLAGIKGEPTLLMPPKKRKHLRDYLLEEASGFFREIVRREGGFSVNYELDPAVGNGGRLEHHHHHH
  protein production: not failed

## MSSKIDALKITVLSLSLCFSVSSLSATVNKTVKQKKNVIYILTDDQRYDEVGFLNPRIDTPNMDKLAAGGVYFKNAFVTTALCSPSRATILTGQYMHNHGVVDNNNPAKESSVYFPSYLQEVGYETSFFGKWHMGGHGDSPQPGFDHWLSFAGQGHYYPKKDKKGRTNKININGERVDQKGYITDELTDYAVDWLDKRDSDKPFFMYLSHKAVHSNFDPAPRHKDQYSDVAIEVPESQADTPENYAGKPMWVKNQRNSWHGVDFPYHSEMDVQEYKRQYHRALSAVDDSLGRVLKWLKDNNLENDTIVMLMGDNGFMFGEHGLIDKRNAYEESMRVPLLAYAPGYFKPGTVVDEMVANLDIAPTILEIAGAKKPAHFDGDSWLPLAKNKEVNQWRENFLYEYYWEFNYPSTPTTFALRTDNYKLIQYHGVWDTEELYDLKNDPKEMNNLINTPKHQPLIAQMRHDLFNLLVNKKGDNVIPYTEKYTPGAVYRERDRGETADFPDNWLKKEGDDGLRTFLRIKPIKDKKDDKKKSAKH
  protein production: failed

## MAKSRLLLSELLDQLSFALCIVRNDYVIVKVNEYFESRVIFDGETMQGKNILELFPESADYLKRKIDTALVIESSSFSSWEQKPHLLPFKSSRPVSGEEEQMYQNLEVIPIHSED
  protein production: failed

## MPLRLDIKRKLTAMSDRVKSVDLHPTEPWMLASLYNGSVCVWNHETQTLVKTFEVCDLPVRAAKFVARKNWVVTGADDMQIRVFNYNTLERVHMFEAHSDYIRCIAVHPTQPFILTSSDDMLIKLWDWDKKWSCSQVFEGHTHYVMQIVINPKDNNQFASASLDRTIKVWQLGSSSPNFTLEGHEKGVNCIDYYSGGDKPYLISGADDRLVKIWDYQNKTCVQTPEGHAQNVSCATFHPELPIIITGSEDGTVRIWHSSTYRLESTLNYGMERVWCVASLRGSNNVALGYDEGSIIVKLGREEPAMSMDANGKIIWAKHSEVQQANLKAMGDTEIKDGERLPLAVKDMGSCEIYPQTIQHNPNGRFVVVCGDGEYIIYTAMALRNKSFGSAQEFAWAHDSSEYAIRESNSVVKIFKNFKEKKSFKPDFGAESIYGGFLLGVRSVNGLAFYDWENTELIRRIEIQPKHIFWSDSGELVCIATEESFFILKYLSEKVLAAQETHEGVTEDGIEDAFEVLGEIQEIVKTGLWVGDCFIYTSSVNRLNYYVGGEIVTIAHLDRTMYLLGYIPKDNRLYLGDKELNIVSYSLLVSVLEYQTAVMRRDFSMADKVLPTIPKEQRTRVAHFLEKQGFKQQALTVSTDPEHRFELALQLGELKIAYQLAVEAESEQKWKQLAELAISKCQFSLAQECLHHAQDYGGLLLLATASGNASMVNKLAEGAERDGKNNVAFMSYFLQGKLDACLELLIRTGRLPEAAFLARTYLPSQVSRVVKLWRENLSKVNQKAAESLADPTEYENLFPGLKEAFVVEEWVKETHADLWPAKQYPLVTPNEERNVMEEAKRFQPSRATAQQEPDGKPASSPVIMASQTTHKEEKSFQELEDDLDTMELEDIDTTDINLDEDILDD
  protein production: failed

## MDDSMTSIKVHCLVSCFCEIIKRRSDIDFRPFYFGLWDGDFDITEGGIISYHSENINHDHYLLWYEKLYGMKVNEWYDHAKDKDSNVETFLQLVENKPENRYVIVMVDMSLLPERENKFHQKPFPHYLMISETEKEEEWFMLDPDFRWEGNMEREKVLYSVQDNPFGGGYFIDVEEIQEPTAEMVASYFIETFKRNDNELTMELKNLIIKMANEEEGYLLSGLVAAVKQIPVLAIRKYSYEHAFAYFRETLQYSEQEFDYWCDRVEDIVQGFTNVQYRAIKMAMTNNKGMLLSIVEKLDEMNAIELQIKTELERQFLSWKEMKSNESVLVF
  protein production: failed

## MYINKFVPVYTLLILIYSFNASAEWTGDNTNAYYSDEVISELHVGQIDTSPYFCIKTVKANGSGTPVVACAVSKQSIWAPSFKELLDQARYFYSTGQSVRIHVQKNIWTYPLFVNTFSANALVGLSSCSATQCFGPK
  protein production: failed

## MIDDLLNFFNSFNVVKNYKLINQLKNEVDTLKSRLDIPRELLDGFYADRNSREYREVYEKDAPLVTVCIGTYNRGKLLVERSVRSVLEQSYGNIELIVVGDCCTDDTPRLVQGITDPRFRFINLPERGNYPENPLHRWCVAGTVPFNYALSQARGDFITHLDDDDEFVPDRIEKLVKFIQREKADLVWHPFWYERSNGRWAMRKAQEFSGGKVTTSSIFYHRWFTAVPWDIEAYRYQEPGDWNRLRKIKYLGARVARYPEPLLRHYCERNQESLSSRTIQTRNTKLEHHHHHH
  protein production: failed
